Conditions in all cases: protein: recombinant; tags: SBP tag (N-terminal); GST removed by PreScission
The target of data set [1] is T1, MSI1 (Musashi1) (UniProt Q61474 1-362). The data set can be described thus: EMSA; mean of 2 gel shifts; EMSA buffer not given; RBNS: 25 mM Tris pH 7.5, 150 mM KCl, 3 mM MgCl2, 0.01% Tween, 1 mg/ml BSA, 1 mM DTT, 30 ug/ml poly I/C, room temperature. Background: In EMSA bound probe runs differently from free probe, usually more slowly.
The target of data set [2] is T1, MSI1 (Musashi1). Kind of data set: EMSA; EMSA buffer not given; RBNS: 25 mM Tris pH 7.5, 150 mM KCl, 3 mM MgCl2, 0.01% Tween, 1 mg/ml BSA, 1 mM DTT, 30 ug/ml poly I/C, room temperature.
For data set [3], the target named is T1, MSI1 (Musashi1). The data set can be described thus: EMSA; no binding detected, Kd cannot be estimated; EMSA buffer not given; RBNS: 25 mM Tris pH 7.5, 150 mM KCl, 3 mM MgCl2, 0.01% Tween, 1 mg/ml BSA, 1 mM DTT, 30 ug/ml poly I/C, room temperature.

The values that follow come from paper PMC4381951, “Musashi proteins are post-transcriptional regulators of the epithelial-luminal cell state”.

As usually defined, the Kd is the concentration at which binding is half-saturated.

T1 sequence (Q61474 whole entry): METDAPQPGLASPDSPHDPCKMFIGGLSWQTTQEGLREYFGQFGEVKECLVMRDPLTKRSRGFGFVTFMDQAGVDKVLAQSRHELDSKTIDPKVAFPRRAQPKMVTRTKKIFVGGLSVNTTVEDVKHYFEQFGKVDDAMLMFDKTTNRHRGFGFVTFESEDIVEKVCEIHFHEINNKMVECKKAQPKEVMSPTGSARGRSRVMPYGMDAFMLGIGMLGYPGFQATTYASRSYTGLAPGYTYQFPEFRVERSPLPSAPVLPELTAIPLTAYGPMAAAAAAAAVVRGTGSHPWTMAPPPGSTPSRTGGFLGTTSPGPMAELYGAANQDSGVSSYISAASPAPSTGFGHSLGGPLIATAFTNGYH

For the molecule UCAAAGUAGAAUUUUUGUAUAGUUAUGUAAAUAAU (ssRNA) [Jag1 3' UTR region 2], the Kd with MSI1 (Musashi1) [1] came to 9 nM.

On to UCAAAGUCCAAUUUUUGUAUCCUUAUGUAAAUAAU (ssRNA) [Jag1 3' UTR region 2 mutant], for which, in the data set with MSI1 (Musashi1) [2], the Kd came to 649 nM.

In the case of UGUCCAGUUCCAUCACUGUUUCCAU (ssRNA) [Jag1 3' UTR region 1 mutant], in the data set with MSI1 (Musashi1) [3], the binding result was “no binding”.

With UGUCCAGUUAGAUCACUGUUUAGAU (ssRNA) [Jag1 3' UTR region 1], in the data set with MSI1 (Musashi1) [1], the Kd amounted to 15 nM.
